Molecular target: HSPA5 tagged with Myc (pcDNA3.1) (UniProt P11021)
Assay: Co-IP (IP: Flag, immunoblot: Myc), band intensity number under the Myc blot
Settings: parent: 1.0

Sequence of UniProt P11021 (P11021 19-654): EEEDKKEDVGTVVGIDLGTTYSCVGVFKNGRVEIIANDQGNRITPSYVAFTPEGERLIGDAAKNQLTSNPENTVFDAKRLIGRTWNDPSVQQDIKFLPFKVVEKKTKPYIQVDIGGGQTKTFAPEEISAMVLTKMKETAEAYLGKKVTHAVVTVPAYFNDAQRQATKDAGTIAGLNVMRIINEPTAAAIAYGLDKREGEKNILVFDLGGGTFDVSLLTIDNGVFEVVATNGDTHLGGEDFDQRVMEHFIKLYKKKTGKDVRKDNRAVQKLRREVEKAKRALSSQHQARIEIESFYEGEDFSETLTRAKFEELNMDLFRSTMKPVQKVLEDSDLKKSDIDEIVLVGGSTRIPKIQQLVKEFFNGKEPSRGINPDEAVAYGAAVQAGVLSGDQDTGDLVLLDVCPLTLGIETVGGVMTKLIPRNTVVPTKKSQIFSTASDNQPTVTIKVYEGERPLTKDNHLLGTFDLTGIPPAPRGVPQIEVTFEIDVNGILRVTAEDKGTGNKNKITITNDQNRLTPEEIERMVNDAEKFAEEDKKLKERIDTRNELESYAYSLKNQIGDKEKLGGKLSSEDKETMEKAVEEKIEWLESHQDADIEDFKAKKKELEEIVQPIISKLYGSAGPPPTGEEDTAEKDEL

ratio to parent | Substance
0.8 | SBSPON tagged with 3×Flag (pcDNA3.1-3×Flag-SBSPON) (from UniProt Q8IVN8) ASP88Vla; LYS91Vla; GLU123Vla; HIS134Vla
0.7 | SBSPON tagged with 3×Flag (pcDNA3.1-3×Flag-SBSPON) (from UniProt Q8IVN8) ASP88Vla
0.8 | SBSPON tagged with 3×Flag (pcDNA3.1-3×Flag-SBSPON) (from UniProt Q8IVN8) HIS134Vla
0.9 | SBSPON tagged with 3×Flag (pcDNA3.1-3×Flag-SBSPON) (from UniProt Q8IVN8) GLU123Vla
0.9 | SBSPON tagged with 3×Flag (pcDNA3.1-3×Flag-SBSPON) (from UniProt Q8IVN8) LYS91Vla

— paper PMC12320502
